Results as given in patent CN117924490A (CHINA RESOURCES BIOMEDICAL CO LTD, dated 2024).

How the values were obtained:
[1] = biological target: T1, IL-4Rα on HEK293-hSTAT6/5×STAT6-Luc cells (UniProt P24394 26-825, limits assumed); assay: cell-based or functional assay
T1 sequence (looked up): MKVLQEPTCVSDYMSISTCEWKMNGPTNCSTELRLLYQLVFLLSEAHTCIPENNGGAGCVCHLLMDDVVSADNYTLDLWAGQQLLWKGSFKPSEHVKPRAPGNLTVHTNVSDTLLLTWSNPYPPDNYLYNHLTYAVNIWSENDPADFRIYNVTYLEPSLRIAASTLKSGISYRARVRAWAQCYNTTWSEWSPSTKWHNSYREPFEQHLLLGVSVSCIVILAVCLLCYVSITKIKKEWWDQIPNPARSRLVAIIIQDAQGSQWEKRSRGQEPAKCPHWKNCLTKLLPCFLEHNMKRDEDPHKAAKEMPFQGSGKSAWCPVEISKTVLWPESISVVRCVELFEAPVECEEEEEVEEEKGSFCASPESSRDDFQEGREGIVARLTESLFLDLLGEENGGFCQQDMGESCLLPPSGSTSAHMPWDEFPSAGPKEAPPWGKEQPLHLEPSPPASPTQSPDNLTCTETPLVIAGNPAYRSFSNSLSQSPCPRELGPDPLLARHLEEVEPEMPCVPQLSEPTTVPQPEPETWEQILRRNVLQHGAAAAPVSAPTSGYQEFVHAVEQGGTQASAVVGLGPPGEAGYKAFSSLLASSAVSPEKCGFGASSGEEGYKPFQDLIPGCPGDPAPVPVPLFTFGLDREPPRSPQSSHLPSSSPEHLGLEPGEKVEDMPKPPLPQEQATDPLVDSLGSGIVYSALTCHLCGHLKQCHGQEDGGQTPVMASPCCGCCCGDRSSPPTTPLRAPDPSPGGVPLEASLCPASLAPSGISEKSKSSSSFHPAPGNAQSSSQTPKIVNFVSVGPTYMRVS

[2] = biological target: T2, 人IL-4R表达于HEK293-IL-4R细胞表面 (human IL-4R on the surface of HEK293-IL-4R cells) (human, UniProt P24394 26-825); assay: FACS on HEK293-IL-4R cells, FITC anti-human IgG, MFI
T2 construct: whole, on cells; The construct in the HEK293-IL-4R line is not described; also called 人IL-4R过表达细胞; 细胞表面IL-4R
T2 sequence (looked up): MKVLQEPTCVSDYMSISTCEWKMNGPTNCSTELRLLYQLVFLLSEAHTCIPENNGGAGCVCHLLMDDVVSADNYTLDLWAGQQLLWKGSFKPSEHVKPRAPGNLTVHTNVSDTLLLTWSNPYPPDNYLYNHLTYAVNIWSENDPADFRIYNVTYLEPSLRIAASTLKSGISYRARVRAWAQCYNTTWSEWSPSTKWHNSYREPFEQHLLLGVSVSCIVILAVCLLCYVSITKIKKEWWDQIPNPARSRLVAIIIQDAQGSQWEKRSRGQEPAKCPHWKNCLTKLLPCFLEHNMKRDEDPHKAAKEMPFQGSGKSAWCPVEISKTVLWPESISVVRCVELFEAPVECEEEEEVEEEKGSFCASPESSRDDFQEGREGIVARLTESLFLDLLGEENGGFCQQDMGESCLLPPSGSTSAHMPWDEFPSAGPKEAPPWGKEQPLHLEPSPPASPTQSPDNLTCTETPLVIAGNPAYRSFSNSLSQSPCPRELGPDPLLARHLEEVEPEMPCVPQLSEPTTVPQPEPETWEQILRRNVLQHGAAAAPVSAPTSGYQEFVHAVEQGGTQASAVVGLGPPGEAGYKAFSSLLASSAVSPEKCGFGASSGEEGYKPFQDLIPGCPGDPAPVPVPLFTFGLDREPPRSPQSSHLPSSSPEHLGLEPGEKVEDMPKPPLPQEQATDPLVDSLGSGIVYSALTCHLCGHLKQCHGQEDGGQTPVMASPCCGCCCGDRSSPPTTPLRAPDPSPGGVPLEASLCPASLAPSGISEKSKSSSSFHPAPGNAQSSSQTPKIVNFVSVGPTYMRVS

[3] = biological target: T3, IL-4R蛋白 (Acrobiosystems, IL-H5221) (human, UniProt P24394 26-232); assay: BLI (Octet RH96), antibody captured on AHC2 probes, IL-4R protein in solution, 1:1 model
T3 construct: The two catalogue numbers differ by one letter, likely a misprint; also called Human IL4R Protein, His Tag (Acro, ILR-H5221); 人IL 4R
T3 sequence (looked up): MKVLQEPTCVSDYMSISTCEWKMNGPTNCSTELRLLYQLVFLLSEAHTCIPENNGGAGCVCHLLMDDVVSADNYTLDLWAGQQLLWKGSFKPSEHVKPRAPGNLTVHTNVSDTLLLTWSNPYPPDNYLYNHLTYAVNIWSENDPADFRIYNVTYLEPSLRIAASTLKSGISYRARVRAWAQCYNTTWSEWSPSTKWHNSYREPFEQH

[4] = biological target: T2, 人IL-4R表达于HEK293-IL-4R细胞表面 (human IL-4R …); assay: FACS competition: blocking of biotinylated human IL-4 binding to HEK293-IL-4R cells, PE streptavidin, MFI

B1: 65G5 (antibody, human IgG1, kappa, V domains shown)
VH: EVKLVESGGALVQPGGSLKLSCAASGFTFNSYGMSWVRQTPDKRLELVAVISSDGAYTYYPDSMKGRFTISRDNAKSSLYLQMSSLQSEDTAMYYCTLITTWYFDVWGAGTTVTVSS
VL: DIQMTQSSSSFSVSLGDRVTITCKASEELYNRLAWYQQKPGNAPRLFISGATTLETGVPSRFSGSGSGKDYTLSITSLQTEDVATYYCQQYWSSPYTFGGGTKLELKR
notes: also called 抗人IL-4R抗体; 抗IL-4R抗体
Q: Which results are given for B1?
A: 抑制IL-4诱导的HEK293-hSTAT6/5×STAT6-Luc细胞中STAT6磷酸化活性 (luciferase reporter, IL4 protein 40ng/mL) IC50 [1]: 92.7 nM; 抑制IL-13诱导的HEK293-hSTAT6/5×STAT6-Luc细胞中STAT6磷酸化活性 (luciferase reporter, IL-13 protein 10ng/mL) IC50 [1]: 5.6 nM; EC50 [2]: 0.334 µg/mL; Kd [3]: 0.341 nM; IC50 [4]: 0.075 µg/mL
